Experimental findings from publication PMC7689938, “Abscisic acid promotes jasmonic acid biosynthesis via a ‘SAPK10‐bZIP72‐AOC’ pathway to synergistically inhibit seed germination in rice (Oryza sativa)” (The New Phytologist, 2020) are described below.

The target of this assay is T1, GST-SAPK10 (rice (Oryza sativa L. ssp. japonica cv …, UniProt Q75H77 1-362)).
T1 construct: SAPK10 (SnRK2 type kinase), rice; full-length CDS in pGEX-4T-1; Purified GST-SAPK10 gave a phosphorylation band with Phos-tag (autophosphorylation, not detected in S177A); source: Transetta (DE3) cells, purified (GST-Sefinose Kit)
T1 sequence (looked up): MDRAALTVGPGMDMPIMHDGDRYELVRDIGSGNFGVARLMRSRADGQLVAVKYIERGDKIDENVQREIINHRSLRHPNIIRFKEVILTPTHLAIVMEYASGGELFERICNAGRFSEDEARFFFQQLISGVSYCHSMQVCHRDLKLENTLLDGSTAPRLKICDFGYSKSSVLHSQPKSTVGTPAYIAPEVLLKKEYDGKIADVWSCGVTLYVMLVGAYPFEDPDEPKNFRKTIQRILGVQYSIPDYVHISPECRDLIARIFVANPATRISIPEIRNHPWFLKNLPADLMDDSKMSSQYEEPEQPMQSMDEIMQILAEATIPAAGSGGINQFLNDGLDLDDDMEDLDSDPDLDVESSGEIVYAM
The experiment in a line: pull-down; GST fusion on glutathione high-capacity magnetic agarose beads; 50 mM Tris-HCl pH 7.5, 5% glycerol, 1 mM EDTA, 1 mM DTT, 1 mM PMSF, 0.01% Nonidet P-40, 150 mM KCl; 4°C, 2 h; blots with anti-His and anti-GST. To be noted: both partners purified.

Positions count from the first letter of the chain named.

B1: His-SAPK10 (enzyme, UniProt Q75H77 1-362, looked up)
chain: T1 sequence (looked up)
notes: SAPK10 (SnRK2 type kinase), rice; full-length CDS in pET28a; source: Transetta (DE3) cells, purified (6 x His-Tagged Protein Purification Kit)
Consider B1, for which the binding result is “binds”.

B2: His-SAPK10^S177A (enzyme, UniProt Q75H77 1-362, looked up)
chain: T1 sequence (looked up) with S177A
notes: SAPK10, rice, Ser177 replaced by alanine; full-length CDS in pET28a; source: Transetta (DE3) cells, purified (6 x His-Tagged Protein Purification Kit)
In the case of B2, the binding result is “binds”.
